41 sequences from the nanobody polyreactivity screen of Harvey et al. (2022) can be followed below.

This data set in a line: yeast display, Sf9 membrane polyspecificity reagent, FACS + sequencing; frameworks hold sequencing errors. In a few lines: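 Polyreactivity labels are assigned by the sorting gate from which each nanobody was recovered. The gates were low and high (top ~1%), set on anti-HA fluorescence for expression and streptavidin fluorescence for reagent binding. Before sorting, galactose-induced (36–48 hours) yeast display cells were stained for 1 hour at 4 °C with 10% biotinylated, detergent-solubilized Sf9 membrane reagent.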
Turning to “QVQLVESGGGLVQAGGSLRLSCAASGGTQRYYAMGWYRQAPGKERDFVASISRSGGSTYYADTVKGRFTISRDNAKNTVYLQMNSLKPEDTAVYYCAAYWSPGYTTRRGYWGQGTQVTVSS”, the “polyreactivity (PSR sort gate)” value was “high polyreactivity”.

Regarding “QVQLVESGGGLVQAGGSLRLSCAASGRIFNQSGMGWYRQAPGKERELVAAIRSGDSTNYADSVKGRFTISRDNAKNTVYLQMNSLKPEDTAVYYCAKDSDYPDYVSTKGDYDYWGQGTQVTVSS”, the “polyreactivity (PSR sort gate)” value is “low polyreactivity”.

Consider “QVQLVESGGGLVQAGGSLRLSCAASGFTFVYYTMGWYRPAPWKERELVAAITWRGSTYYADSVKGRFTISRDNAKNTVYLQMNSLKPEDTAVYYCAARYRVLLRHREYDYWGQGTQVTVSS”, for which the “polyreactivity (PSR sort gate)” value is “high polyreactivity”.

Take “QVQLVESGGGLVQAGGSLRLSCAASGTIFRRSAMGWDRQAPGKERELVATITSTDSTNYADSVKGRFTISRDNAKNTVYLQMNSLKPEDTAVYYCAKRPYHYRRNSEYYYWGQGTQVTVSS”: the “polyreactivity (PSR sort gate)” value is “low polyreactivity”.

Regarding “QVQLVESGGGLVQAGGSLRLSWAASGSTFPYYAMGWYRQAPGKERELVAAISWSDANTYYADSVKGRFTISRDNAKNTVYLQMNSLKPEDTAVYYCAAEPYDRYGPYTGYGLNYWGQGTQVTVSS”, the “polyreactivity (PSR sort gate)” value was “low polyreactivity”.

As to “QVQLVESGGGLVQAGGSLRLSCAASGSIIGIYALGWYRQAPGKERELVAAISWSGGSTYYADSVKGRFTISRDNAKNTVYLQMNSLKPEDTAVYYCAARGHYQYYWGQGTQVTVSS”, the “polyreactivity (PSR sort gate)” value was “low polyreactivity”.

Consider “QVQLVESGGGLVQAGGSLRLSCAASGSTFSRYAMGWYRQAPGKERELVAAISSDGTTYYADSVKGRFTISRDNAKNTVYLQMNSLKPEDTAVYYCAKRGYYRSRRYDYWGQGTQVTVSS”, for which the “polyreactivity (PSR sort gate)” value is “high polyreactivity”.

In the case of “QVQLVESGGRLVQAGGSLRLSCAASGFTFDVYAMGWYRQAPGKERELVASITLRDGSTYYADSVKGRFTISRDNAKNTVYLQMNSLKPEDTAVYYCAADDSRATYEFEYWGQGTQVTVSS”, the “polyreactivity (PSR sort gate)” value is reported as “low polyreactivity”.

For the sequence “QVQLVESGGGLVQAGGSLRLSCAASGRIFPSYAMGWYRQAPGKERELVAAISRSGGRTYYADSVKGRFTISRDNAKNTVYLQMNSLKPEDTAVYYCYPYYIASTFDYWGQGTQVTVSS”, the “polyreactivity (PSR sort gate)” value was “high polyreactivity”.

Regarding “QDQLVESGGGLVQAGGSLRLSCAASGSIFYRYAMGWYRQARGKVREFVAGITYSSGTTYYADSVKGRFTISRDNAKNTVYLQMNSLKPEETAVYYCAAELRSSYYRRAMDYCGQGTQVTVSS”, the “polyreactivity (PSR sort gate)” value is “high polyreactivity”.

Take “QVQLVESGGGLVQAGGSLRLSCAASGNTFQWYVMGWYRQAPGKERELVAAITTRGGSTYYADSVKGRFTISRDNAKNTVYLQMNSLKPEDTAVYYCAKDWYASWYTKYDYWGQGTQVTVSS”: the “polyreactivity (PSR sort gate)” value is on record as “low polyreactivity”.

In the case of “QVQLVESGGGLVQAGGSLRLSCAASGSTFSPNVMGWYRQAPGKERELVAAISSSTGSTNYADSVKGRFTISRDNAKNTVYLQMNSLKPEDTAVDYCAVDPYVHWTTKLYDYWGQGTLVTVSS”, the “polyreactivity (PSR sort gate)” value was “low polyreactivity”.

Consider “QVQLVESGGGLVQAGGSLRLSCAAYGRIFDAYAMGWYRQAPGKERELVAAITQSGGSTFYADSVKGRFTNSRDNAKNTVYLQMNSLKPEDTAVYDSNTGLSGRRYGFGVSFGMDYWGQGTQVTVSS”, for which the “polyreactivity (PSR sort gate)” value is given as “low polyreactivity”.

In the case of “QVQIVESGGGLVQAGGSLRLSCASSGRIFNTNAMGWYRQAPGKERELVAGITDSGDSTYYADSVKGRFTISRDNAKNTVYLQMNSLKPQDSAVYFCATDPASPYIYYYWGQGTQVTVSS”, the “polyreactivity (PSR sort gate)” value is on record as “low polyreactivity”.

Take “QVQLVESGGGLVQAGGSLRLSCAASGFTFWTYAMGWYRQAPGKERELVAAIDSGGSTYYADSVKGRFTISRDNAKNTVYLQMHSLKPEDTAVYYCNAGPSVTSGYDYDYWGQGTQVTVSS”: the “polyreactivity (PSR sort gate)” value is “low polyreactivity”.

Take “QVQLVESGGGLVQAGGSLRLSCAASGSTLLWNTMGWYRQAPGKERELVAAISITGSTNYADSVKGRFTISRDNEKNTVYLQMNSLKPEDTAVYYCAAPYGLPWWYGSWGQGTQVTVSS”: the “polyreactivity (PSR sort gate)” value was “low polyreactivity”.

As for “QVQLVESGGGLVQEGGSLRLSCAASGFTFTSNAMGWYRQAPGKERELVAAITYSGGITYYADSVKGRFTISRDNAKNTVYLQMNSLKPEDTAVYYCAADSTPYVLSGNYDYWGQGTQVTVSS”, the “polyreactivity (PSR sort gate)” value is “low polyreactivity”.

Regarding “QVQLVESGAGLFQAGGSLRLSCAASGFTFNYYAMGGYIHAPGKERELVAAISRRGGSTYYADSVKGRFTISRDNAKNNVYLQMKSLKPEDTAVYYCNAASLKFTSPVRFGYWGQGTQVTVSS”, the “polyreactivity (PSR sort gate)” value is reported as “high polyreactivity”.

Turning to “QDQLVESGGGLVQAGGSLRLSCAASGPIFRSYAMGWYRQAPGKEMELVAAISRSGGSTYYADSVKGRFSISRDNAKNSVYLHMNSLKPEDSAVYYCAADYILLGGRRKFDSWGQGTQVTVSS”, the “polyreactivity (PSR sort gate)” value is “low polyreactivity”.

Consider “QVQLVESGGGLVQAGGSLRLSCAASGSTFKVYAMGWYRQAPGKERELVAVISGGGRTNYADSVKGRFTISRDNAKNTVYLQMNSLNPEDTAVYYSAALGPYGSARRKYGYWGQGTQVTVSS”, for which the “polyreactivity (PSR sort gate)” value is “high polyreactivity”.

Take “QVQLVESGGGLVQAGGSLRLSCAASGSISYFNAMGWYRQAPGKERELVAAITSGGSTYYADSVKGRFTISRDNAKNTVYLQMNSLKPEDTAVYYCNAPLEWGVYAAQNWDDGYWGQGTQVTVSS”: the “polyreactivity (PSR sort gate)” value is “low polyreactivity”.

As to “QVQLVESGGWLVQAGGSLRLRCAASGRIFSRYAMGWYRQAPGKEWELVAAISWSGGSTYYADSVKGRFTISRDNAKNTVYLQMNSLKPEDTAVYYCAAKRQYTEYNYWGQGSQVTVSS”, the “polyreactivity (PSR sort gate)” value is “high polyreactivity”.

For the sequence “QVQLVESGGGLLQAGGSLRLSCAASGIIFRGYSMGWYRPAPGKERELVASITRRGGSTRYADSVKGRFTISRDNAKNTVYLQMNSLKPEDTPVYYCAAVGVGKTSTAYGYWGQGTQVNVSS”, the “polyreactivity (PSR sort gate)” value is given as “high polyreactivity”.

Take “QVQLVESGGGLVQARGSLRLSCAASGSIFRKYAMGWYRQAPGKERELVAVITTDGSTNYADSVKGRFTISRDNAKNTVYLQMNSLKPEDTAVYYCNAVRSSIGTDNVYWGLGTQVTVSS”: the “polyreactivity (PSR sort gate)” value was “low polyreactivity”.

For “QVQHVESGGGLVQAGGSLRLSCAASGYIFPDYAMGWYRLAPGKEREMVAAITSSGGITYYADSVKGRFTISRDNAKNTVYLQMNCLKPEDSAVYYCAKGYPWRYSIMDYWGQGTQVTVSS”, the “polyreactivity (PSR sort gate)” value is on record as “low polyreactivity”.

Take “QVQLVESGGGLVQAGGSLRLSCSASGFTFYVNAMGWYRQAPGKERELVAAITDDGDSTYYADSVKGRFTISRDNAKNTVYLQMNSLKPEDTAVYYCKTVYGPDLDGTEYDYWGQGTQVTVSS”: the “polyreactivity (PSR sort gate)” value was “low polyreactivity”.

For “QVQLVESGGGLVQAGGSLRLSCAASGLIFGGNAMGWYRQAPGKERELVAAISRTGGRTYYADSVKGRFTISRDNAKNTVFLQMNSLKPEDTAVYYCAAAAQRPEGYYWGQGTQVTVSS”, the “polyreactivity (PSR sort gate)” value is given as “high polyreactivity”.

With “QVQLVESGGGLVQAGGSIRLSCAASGRTFGDYAMGWYRQAPGKERELVAAISSSGGRTYYADSVKGRFTISRDNAKNTVYLQMNSLKPEDTAVYYCAAQSKYYQYYSWGQGTQVTVSS”, the “polyreactivity (PSR sort gate)” value was “high polyreactivity”.

Regarding “QVQLVESGGGLVQAGGSLRLSCAASGRTFGVYVMGWYRQAPGKERELVAAIRIGDSTNYADSVKGRFTISRDNAKNTVYLQMNSLKPEDTAVYYCNAYRVRYTVDSVFYGYDYWGQGTQVTVSS”, the “polyreactivity (PSR sort gate)” value is “high polyreactivity”.

For the sequence “QVQLVESGGGLVQAGGSLRLSCAASGSTSLYYAMGWYRQAPGKEREFVAAITWSGGSTYYADSVKGRFTISRDNAKNTVYLQMNSLKPEDTAVYYCAARSYGYSAGYYWGQGTQVTVSS”, the “polyreactivity (PSR sort gate)” value is on record as “high polyreactivity”.

For the sequence “QVQLVESCGGIDQAGGSLRLTCAATGRIFNSYPMGWYRQAPGKERELVAAISRNGGITYYADSVKARFTISRDNAKITVYLQMNILKQEDTAVYYCNADSSRRLYSSEYWGEGTQVTVSS”, the “polyreactivity (PSR sort gate)” value was “high polyreactivity”.

Consider “QVQLVESGGGLVQAGGSLRLSCAASGFTFGHYVMGWYRQAPGKERELVAAITLSGGGTYYADSVKGRFTISRDNAKNTVYLQMNSLKTEDTAVYYCAAVRRAEEFDYWGQGTQVTVSS”, for which the “polyreactivity (PSR sort gate)” value is recorded as “low polyreactivity”.

On to “QVQLVESGGGLVQAGGSLRLSCAASGLIFKYNDMGWYRQAPGTEREFVAAISWRGGRTYYADSVKGRFTISRDNEKNTVYLQMNSLKPEDTAVYYCNAGYRIAQFPSPHIAYYGYGYWGQGTQVTVSS”, for which the “polyreactivity (PSR sort gate)” value is “high polyreactivity”.

Regarding “QVQLVESGGGLVQAGGSLRLSCAASGSIFVRNTMGWYRQAPGKERELVASIDWSGGITYYADSVKGRFTISRDNAKNTVYLQMNSLKPEDTAVYYCNAVFLYPFNVPTMEYWGQGTQVTVSS”, the “polyreactivity (PSR sort gate)” value is on record as “low polyreactivity”.

For “QVQLVESGGGLVQAGGSLRLSCAASGSTLYWYAMGWYRQAPGKERELVASISWSGGSTYYADSVKGRFTISRDNAKITVYLQMNSLKPEDTAVYYCDAVRHYHGTWYDYWGEGTQVTVSS”, the “polyreactivity (PSR sort gate)” value was “high polyreactivity”.

With “QVQLVESGGGLVQAGGSLRLSCAASGRTFWYNAMGWYRQAPGKEREFVAAIRWTTGSTYYADSVKGRFTISRDNAKNTVYLQMNSLKPEDTAVYYCAASLYPVRRDYWGQGTQVTVSS”, the “polyreactivity (PSR sort gate)” value is given as “high polyreactivity”.

For the sequence “QVQLVESGGGLVQAGGSLRLSCAASGRIFQGYAMGWYRQAPGKERELVAAISVRGGSTFYADSVKGRFTISRDNAKNTVYLQMNSLKPEDTAVYYCATRTRYRGGYWGQGTQVTVSS”, the “polyreactivity (PSR sort gate)” value is recorded as “high polyreactivity”.

Consider “QVQLVESGGGLVQAGGSLRLSCAASGRTFWAYAMGWYRPAPGKERELVSAITTSGGSTNYADSVKGRFTISRDNAKNTVYLHMIRLKPEDTAVYYCNADPTYHVVNGVGYWGQGTQVTVSS”, for which the “polyreactivity (PSR sort gate)” value is “low polyreactivity”.

As for “QVQLVESGGGLVQAGGSLRLSCAASGSTFYPYFMGWYRQAPAKEREFVAAISKSGGSTYYADSVKGRFTISRDNAKNTVYLQMNSLKPEDTAVYYCNKKVGSYYRSYYYWGQGTQVTVSS”, the “polyreactivity (PSR sort gate)” value is reported as “high polyreactivity”.

Regarding “QVQLVESGGGLVQAGGSLRLSCAASGRTFWYYAMGWYRQAPGKERELVAAITYRGGSTYYADSVKGRFTISRDNVKNTVYLQMNSLKPEDTAVYYCARRVDSYYGHTRYYYWGQGTQVTVSS”, the “polyreactivity (PSR sort gate)” value is recorded as “high polyreactivity”.

On to “QVQLVESGGGLVQAGGSLRLSCAASGRIFSYNAMGWYRQAPGKERELVARINWSSGRTYYADSVKGRFTISRDNAKNTVYLQMNSLKPEDTAVYYCNRVSRGPVGGYYWGQGTQVTVSS”, for which the “polyreactivity (PSR sort gate)” value is on record as “high polyreactivity”.
